The record followed here is patent US20250198990A1 (Stanford University, published 2025).

The term Kd denotes the equilibrium constant for the complex coming apart.

Series [1] concerns the target Wild-type mouse LAG-3 domains 1 and 2 (D1D2) displayed on yeast as N-terminal fusion to Aga2 (mouse; Saccharomyces cerevisiae) (UniProt Q61790). In words: yeast surface display titration, flow cytometry; monomeric D1D2 on yeast.
Series [2] deals with the molecule itself. In words: flow-FRET in Expi293 cells; self-association.
Protocol: Flow cytometry-based Förster resonance energy transfer (flow-FRET) assays have been utilized for live cell detection of proximal protein associations at distances <100 Å and was thus used to assess LAG-3 dimerization.
Expi293F cells (ThermoFisher Scientific) were transfected with a CFP:YFP:PEI ratio of 0.5:0.5:3 in a 24-well plate at 37° C. in 8% CO₂. Cells were analyzed after 36 hours using a BD LSRII flow cytometer. The 407 nm violet laser was used to excite CFP and the 488 nm blue laser was used to excite YFP. CFP was detected using a 450/50 bandpass filter after excitation with the violet laser and YFP was detected using a 530/30 bandpass filter after excitation with the blue laser.

The molecule C9B7W anti-mouse LAG-3 antibody gave a Kd in series [1] of 0.136 nM.

B1: Full-length mouse LAG-3 fused to CFP or YFP, on Expi293F cells (receptor, UniProt Q61790 24-521, looked up)
chain: GPGKELPVVWAQEGAPVHLPCSLKSPNLDPNFLRRGGVIWQHQPDSGQPTPIPALDLHQGMPSPRQPAPGRYTVLSVAPGGLRSGRQPLHPHVQLEERGLQRGDFSLWLRPALRTDAGEYHATVRLPNRALSCSLRLRVGQASMIASPSGVLKLSDWVLLNCSFSRPDRPVSVHWFQGQNRVPVYNSPRHFLAETFLLLPQVSPLDSGTWGCVLTYRDGFNVSITYNLKVLGLEPVAPLTVYAAEGSRVELPCHLPPGVGTPSLLIAKWTPPGGGPELPVAGKSGNFTLHLEAVGLAQAGTYTCSIHLQGQQLNATVTLAVITVTPKSFGLPGSRGKLLCEVTPASGKERFVWRPLNNLSRSCPGPVLEIQEARLLAERWQCQLYEGQRLLGATVYAAESSSGAHSARRISGDLKGGHLVLVLILGALSLFLLVAGAFGFHWWRKQLLLRRFSALEHGIQPFPAQRKIEELERELETEMGQEPEPEPEPQLEPEPRQL
notes: whole, on cells; Two plasmids, one CFP and one YFP fusion, co-transfected for flow-FRET; also called mLAG-3^CFP; mLAG-3^YFP; not shown: CFP or YFP from pECFP / pEYFP plasmids
For the molecule B1, in series [2], the binding result is recorded as “binds”.
